Measurements published in article PMC12931925.

Target: KRAS^G12D (UniProt P01116)

RBDCRD-NarX fusions (RAS-binding components of the RAS sensor, RBDCRD wild-type), sequence (P0AFA2 whole entry, looked up, the tested form may be a part): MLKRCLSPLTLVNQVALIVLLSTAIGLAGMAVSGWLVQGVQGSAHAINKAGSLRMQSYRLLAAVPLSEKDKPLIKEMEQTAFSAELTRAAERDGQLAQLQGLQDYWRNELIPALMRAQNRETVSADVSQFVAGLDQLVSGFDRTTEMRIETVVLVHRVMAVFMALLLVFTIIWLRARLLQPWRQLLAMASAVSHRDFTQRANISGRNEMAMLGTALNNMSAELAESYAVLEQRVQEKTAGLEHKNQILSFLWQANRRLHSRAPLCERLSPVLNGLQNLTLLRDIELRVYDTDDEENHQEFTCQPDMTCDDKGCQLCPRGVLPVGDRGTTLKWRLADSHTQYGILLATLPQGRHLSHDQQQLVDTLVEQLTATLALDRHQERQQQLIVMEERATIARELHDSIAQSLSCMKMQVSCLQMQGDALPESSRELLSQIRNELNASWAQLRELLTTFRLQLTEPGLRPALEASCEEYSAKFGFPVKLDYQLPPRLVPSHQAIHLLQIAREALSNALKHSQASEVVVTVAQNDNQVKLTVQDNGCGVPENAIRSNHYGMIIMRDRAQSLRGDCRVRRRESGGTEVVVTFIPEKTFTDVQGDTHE

RBDCRD-NarX fusions (RAS-binding components of the RAS sensor, RBDCRD wild-type) (from UniProt P0AFA2 379-598; P0AFA2 379-598)
increase in relative mCerulean output of the functional RAS sensor compared to 0 ng/well of KRAS^G12D plasmid (HEK293, Figure 2—figure supplement 2b): 14 fold
